We go through one molecule from PMC10593839, “The liver microenvironment orchestrates FGL1-mediated immune escape and progression of metastatic colorectal cancer” (Nature Communications, 2023).

For this assay, the target named is T1, recombinant hLAG-3 (lymphocyte activating 3) (human, UniProt P18627 23-450).
T1 construct: Bought recombinant protein; source: bought: ABclonal Technology
T1 sequence (looked up): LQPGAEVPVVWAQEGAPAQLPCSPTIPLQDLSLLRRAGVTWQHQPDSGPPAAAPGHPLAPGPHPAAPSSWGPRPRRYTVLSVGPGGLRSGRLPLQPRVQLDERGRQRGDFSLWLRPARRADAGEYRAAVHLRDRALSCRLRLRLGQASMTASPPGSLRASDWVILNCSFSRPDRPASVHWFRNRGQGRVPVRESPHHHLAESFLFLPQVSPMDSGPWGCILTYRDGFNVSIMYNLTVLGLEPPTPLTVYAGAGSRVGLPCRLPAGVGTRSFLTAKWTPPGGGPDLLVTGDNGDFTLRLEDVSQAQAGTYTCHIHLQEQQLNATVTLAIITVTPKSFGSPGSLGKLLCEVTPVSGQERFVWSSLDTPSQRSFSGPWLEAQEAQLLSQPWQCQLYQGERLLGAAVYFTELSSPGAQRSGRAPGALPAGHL
The experiment in a line: ELISA; recombinant hLAG-3 (1 μg/mL) coated on ELISA microwells; different amounts of recombinant hFGL1 incubated for 1 h; detected with HRP-conjugated anti-hFGL1 antibody, OD 450 nm. The following applies: both partners purified. In general terms: An ELISA detects its analyte on a solid surface through an enzyme-linked reagent.

B1: recombinant hFGL1 (fibrinogen-like protein 1) (ligand, human, UniProt Q08830 23-312, looked up)
chain: LEDCAQEQMRLRAQVRLLETRVKQQQVKIKQLLQENEVQFLDKGDENTVIDLGSKRQYADCSEIFNDGYKLSGFYKIKPLQSPAEFSVYCDMSDGGGWTVIQRRSDGSENFNRGWKDYENGFGNFVQKHGEYWLGNKNLHFLTTQEDYTLKIDLADFEKNSRYAQYKNFKVGDEKNFYELNIGEYSGTAGDSLAGNFHPEVQWWASHQRMKFSTWDRDHDNYEGNCAEEDQSGWWFNRCHSANLNGVYYSGPYTAKTDNGIVWYTWHGWWYSLKSVVMKIRPNDFIPNVI
notes: fibrinogen-like protein 1 (FGL1), human, recombinant; Bought recombinant protein; also called HFREP1; source: bought: ABclonal Technology
Take B1: the binding result is “binds”.
